In PMC10689933 (Molecular Therapy Oncolytics, 2023):
Each block holds one binder with its values, some of them ahead of it.

What was measured:
[1] = molecular target: T1, CD24, membrane-associated, on human cells (Homo sapiens, UniProt P25063); assay: flow cytometry on cells
T1 chain: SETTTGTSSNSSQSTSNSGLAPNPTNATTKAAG

His-tagged CD24 antigen = molecular target: T2, His-tagged CD24 antigen (Homo sapiens (species assumed), UniProt P25063); assay: ELISA
T2 chain: T1 chain

binding result [1]: binds | binding result (His-tagged CD24 antigen): binds
B1: PPAB001, bispecific antibody fusion protein against CD47 and CD24 (bispecific antibody, V domains shown)
VH: VKLVESGGGLVQPGGSLKLSCAASGDSVTSKSMSWVRQAPSGGLQWIGRTYPDNGDSSYTPSVRSRFIISRDNAKNTLYLQMRKVRSEDTGFYYCARQGDYWGQGTTLTVSS
VL: DVVMTQTPLTLSLSPGQPASISCKSSQSGSIGRAKTYLNWYQQRPGQAPKLLIYDASKLDSGVPDRFTGSGSGTDFTLKISRVEAEDLGVYYCWQGTHFPYTFGGGTKLEIK

binding result [1]: binds
B2: humanized anti-CD24 antibody with common light chain (antibody, V domains shown)
VH: B1 VH
VL: B1 VL
